# Measurements: the Immune Epitope Database (IEDB)
# Experiments:
# Assay in all cases: IEDB peptide-MHC binding, purified MHC/competitive/radioactivity; ≥ and ≤ were set here for values at or beyond the usual limits of such assays
# Conditions in all cases: source organism: Bordetella pertussis
# HLA-B*44:03 = target: HLA-B*44:03
# HLA-B*53:01 = target: HLA-B*53:01
# HLA-B*57:01 = target: HLA-B*57:01
# HLA-A*02:01 = target: HLA-A*02:01
# HLA-B*07:02 = target: HLA-B*07:02
# HLA-B*35:01 = target: HLA-B*35:01
sequence,measurement,setting,value
AEGGATLGA,IC50,HLA-B*44:03,12 µM
ASSPDAHVP,IC50,HLA-B*53:01,52.3 µM
EKRLDIDDA,IC50,HLA-B*57:01,≥ 70.4 µM
FIYRETFCI,IC50,HLA-B*53:01,6.63 µM
HLSPALADV,IC50,HLA-A*02:01,0.444 µM
LAARGDGAL,IC50,HLA-B*07:02,6.34 µM
same,IC50,HLA-B*35:01,69.9 µM
LSAALGADW,IC50,HLA-B*44:03,1.17 µM
same,IC50,HLA-B*53:01,1.69 µM
MEVMLRAVF,IC50,HLA-B*44:03,0.0115 µM
NNETMSGRQ,IC50,HLA-B*57:01,≥ 70.4 µM
QQLKQADRD,IC50,HLA-B*07:02,69.6 µM
STYELLDYL,IC50,HLA-A*02:01,8.01 µM
TVVQRNKHW,IC50,HLA-B*53:01,69.9 µM
same,IC50,HLA-B*57:01,≥ 70.4 µM
VGAGGYEAG,IC50,HLA-B*53:01,69.9 µM
VSGGSLSAP,IC50,HLA-B*53:01,54.5 µM
VTSVAMKPY,IC50,HLA-B*57:01,9.09 µM
YAEHGEVSI,IC50,HLA-B*53:01,11.4 µM
YAIDGTAAG,IC50,HLA-B*35:01,2.33 µM
